Test results published in paper doi:10.1101/2025.07.23.666440.

Target: PANA_2924 C-terminal domain after TEV cleavage of the His-TEV tag (Pantoea ananatis LMG 20103) (UniProt D4GKQ2)
Experiment: SEC

Substance “PANA_2923 immunity protein (natural protein)” has a stoichiometry N of 1.
